From PMC3163267, “Structure and Organisation of SinR, the Master Regulator of Biofilm Formation in Bacillus subtilis” (Journal of Molecular Biology, 2011)

B1: SinR (natural protein, B. subtilis, UniProt P06533 1-111, looked up)
chain: MIGQRIKQYRKEKGYSLSELAEKAGVAKSYLSSIERNLQTNPSIQFLEKVSAVLDVSVHTLLDEKHETEYDGQLDSEWEKLVRDAMTSGVSKKQFREFLDYQKWRKSQKEE
notes: After cleavage with human rhinovirus 3C protease a residual N-terminal Gly-Pro-Ala is expected to remain; Tetramer by SEC-MALLS; also called intact SinR; full-length SinR; not shown: His6, N-terminal, cleaved
B2: SinR(74–111) (domain or fragment, B. subtilis, UniProt P06533 74-111, looked up)
chain: LDSEWEKLVRDAMTSGVSKKQFREFLDYQKWRKSQKEE
notes: SinR, Bacillus subtilis, C-terminal domain, residues 74–111; A selenomethionine form was also crystallised; also called C-terminal domain of SinR; not shown: His6, N-terminal, cleaved
B3: single-site SinRBM duplex (dsDNA)
DNA 1: AATTTTTCGTTCTTTATAAAAT
DNA 2: ATTTTATAAAGAACGAAAAATT
B4: SinI (natural protein, B. subtilis, UniProt P23308 1-57, looked up)
chain: MKNAKQEHFELDQEWVELMVEAKEANISPEEIRKYLLLNKKSAHPGPAARSHTVNPF
notes: Cloned into the same modified pET28 vector and cleaved as described for SinR, so a residual N-terminal Gly-Pro-Ala probably remains (surmised); Dimer by SEC-MALLS
B5: tandem repeat SinRBM duplex (dsDNA)
DNA 1: GTCGTTCTCTCGTTCTCTATAA
DNA 2: TTATAGAGAACGAGAGAACGAC

Experiments:
[1] = biological target: the molecule itself; assay: SEC-MALS; SEC-MALLS on Superdex 75 HR 10/30; 25 mM Tris pH 8.5, 200 mM NaCl, 0.5 mM EDTA; 100 µl samples of 1 mg/ml protein or an equimolar mixture of SinR and SinI
SinR [2] = biological target: T1, SinR (Bacillus subtilis, UniProt P06533 1-111); assay: fluorescence anisotropy; FA: 10 mM Hepes pH 8.0, 100 mM NaCl, 1 mM DTT, 1 mM EDTA, 5 nM HEX-DNA, 25 C; SPR: 10 mM Hepes pH 8.0, 150 mM NaCl, 3 mM EDTA, 0.05% P20; conditions: protein: recombinant; tags: N-terminal Gly-Pro-Ala left after 3C cleavage of His6 tag; chain copies: 4; label: 5' HEX on one strand; 22 bp
T1 sequence: B1 chain

SinR [3] = biological target: B1; assay: SEC-MALS; SEC-MALLS on Superdex 75 HR 10/30; 25 mM Tris pH 8.5, 200 mM NaCl, 0.5 mM EDTA; 100 µl samples of 1 mg/ml protein or an equimolar mixture of SinR and SinI; conditions: both partners purified

Row | Binder | stoichiometry N [1] | Kd (SinR [2]) [µM] | stoichiometry N (SinR [3])
1 | B1 | 4 |  | 
2 | B2 | 4 |  | 
3 | B3 |  | 2.8 | 
4 | B4 | 2 |  | 1
5 | B5 |  | 3.7 | 
